Source: patent publication US20210070876A1 (LES LABORATOIRES SERVIER, published 2021)
Where a chain is given by its changes, count along the chain named. Numbers in names are those of the source.

Tests used:
[1] = target: T1, His-tagged cynomolgus CD73 ECD (cynomolgus monkey (Macaca fascicularis)); assay: SPR, mAb captured, His-tagged CD73 ECD injected
T1 chain: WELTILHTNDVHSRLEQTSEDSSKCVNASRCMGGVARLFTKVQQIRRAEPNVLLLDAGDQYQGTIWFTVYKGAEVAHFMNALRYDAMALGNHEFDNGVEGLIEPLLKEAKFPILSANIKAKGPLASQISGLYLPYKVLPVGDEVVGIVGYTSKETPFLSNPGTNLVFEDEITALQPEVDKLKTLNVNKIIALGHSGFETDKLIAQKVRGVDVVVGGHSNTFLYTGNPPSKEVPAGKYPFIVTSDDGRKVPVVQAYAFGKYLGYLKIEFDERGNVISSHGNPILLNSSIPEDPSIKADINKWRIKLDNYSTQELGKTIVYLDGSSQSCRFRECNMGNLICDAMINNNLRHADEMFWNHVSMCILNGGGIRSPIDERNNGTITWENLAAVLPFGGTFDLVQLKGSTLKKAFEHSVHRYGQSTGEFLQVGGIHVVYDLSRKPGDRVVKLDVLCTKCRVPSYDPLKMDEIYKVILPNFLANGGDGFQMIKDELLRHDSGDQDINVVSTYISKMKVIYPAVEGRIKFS
Procedure: Kinetic binding analysis of anti-CD73 mAbs and Fab fragments was performed by Surface Plasmon Resonance (SPR), using a Continuous Flow Microspotter (CFM, Wasatch Microfluidics, Salt Lake City, US) combined with an IBIS MX96 SPR instrument (IBIS Technologies, The Netherlands). CD73 cDNAs coding for the extracellular domains of human and cynomolgus CD73 were synthesized and each cloned into a vector containing a CMV promoter and either a C-terminal 6× histidine sequence (SEQ ID NO: 45) for His-tagged CD73 ECD, or a human IgG1 Fc sequence (AA P101-K330), resulting in fusion of IgG1 Fc C-terminally to the cloned CD73 ECD. The His-tagged and Fc-fusion constructs were transiently expressed using an ExpiCHO™ expression system and purified either by standard Ni-NTA chromatography or standard MabSelect™ SuRe™ procedures, respectively. Anti-CD73 Fab fragments were generated by digesting full-length IgG1 antibodies with GingisKHAN enzyme, using a kit provided by Genovis (Sweden). Affinities of Fab fragments were measured by capturing Fc-tagged antigens on a G-a-hu-IgG Fc SensEye® for 15 minutes using the CFM. After spotting, the SensEye® was positioned in the IBIS MX96 biosensor and immobilized antigens were fixed by SensEye FixIt kit. Kinetic analysis was performed by injecting monomeric Fab fragments at increasing concentrations from 0.8 nM to 300 nM. After each cycle of Fab fragment injection, the surface was regenerated by 10 mM glycine pH 3, 10% glycerol. Fab association was performed for 15 minutes and antigen dissociation was performed for 15 minutes. Affinities of full-length monoclonal antibodies (mAbs) were measured by capturing mAbs on a G-a-hu-IgG Fc SensEye® (Ssens BV, The Netherlands) for 15 minutes using a Continuous Flow Microspotter (CFM, Wasatch Microfluidics, Salt Lake City, US). After spotting, the SensEye was docked in the IBIS MX96 and spotted mAbs were fixed by SensEye FixIt kit (Ssens BV, The Netherlands). Kinetic analysis was performed by applying a kinetic titration series injecting increasing concentrations of His-tagged antigens from 0.16 nM to 10 nM as 2-fold dilutions. The surface was regenerated before the next cycle of cynomolgus antigen injections by 100 mM H₃PO₄, pH 3. MAb association was performed for 15 minutes and antigen dissociation was performed for 45 minutes.

[2] = target: T2, human CD73 expressed on cells (human, UniProt P21589 27-549); assay: flow cytometry on CHO-S cells transiently expressing human CD73, AF647 anti-human IgG (H+L) secondary, GeoMean
T2 construct: also called 5'-NT; human CD73 on CHO-S cells
T2 sequence: T1 chain with T199M, A350T, I466V
Procedure: The anti-CD73 antibodies were incubated with the hamster CHO-S cell line transiently expressing human or cynomolgus CD73 for 30 minutes at 4° C. The cells were washed twice and subsequently incubated for an additional 20 minutes with AF647-conjugated secondary anti-human IgG (H+L) antibody. After the washing step, antibody binding was detected using the high-throughput flow cytometer iQue Screener PLUS (Sartorius) measuring the GeoMean of AF647 signal in each well. Every concentration was assayed in triplicate and a 12-point titration curve was generated for each antibody.

Kd [1]: 0.24 nM | EC50 (read off the curve) [2]: ~5 ng/mL
B1: antibody 21127 (antibody, human IgG1, kappa, L234A L235A, V domains shown)
VH: EVQLVESGGGLVQPGRSLRLSCAASGFTFDDFAMHWVRQAPGKGLEWVSGISWNSGNIGYADSVKGRFTISRDNAKNSLYLQMNSLRAEDTALYYCAKDKSGSPYYYYGMDVWGQGTMVTVSS
VL: DIQMTQSPSSVSASVGDRVTITCRATQGISRRLAWYQQKPGKAPKLLIYAASSLQSGVPSRFSGSGSGTDFTLTISSLQPEDFATYYCQQANSFPLTFGGGTKVEIKR
notes: Fully human IgG1-LALA (L234A/L235A), kappa
